Paper PMC4841768

Experiments:
[1] = Western blot, mESCs; conditions: glycan lost; control: fSOX2-Tg mESCs
[2] = FLAG immunofluorescence, MEFs day 6; conditions: glycan lost; control: OSFLAG-WTKM
[3] = Western blot and immunostaining, transduced MEFs; conditions: glycan lost; control: OSFLAG-WTKM
[4] = label-free LC-MS of TAD peptide; conditions: glycan lost; control: fSOX2-Tg mESCs
[5] = immunofluorescence, mESCs; conditions: glycan lost; control: fSOX2-Tg mESCs

Chain of SOX2: S248A (chain, as listed by the source S248A): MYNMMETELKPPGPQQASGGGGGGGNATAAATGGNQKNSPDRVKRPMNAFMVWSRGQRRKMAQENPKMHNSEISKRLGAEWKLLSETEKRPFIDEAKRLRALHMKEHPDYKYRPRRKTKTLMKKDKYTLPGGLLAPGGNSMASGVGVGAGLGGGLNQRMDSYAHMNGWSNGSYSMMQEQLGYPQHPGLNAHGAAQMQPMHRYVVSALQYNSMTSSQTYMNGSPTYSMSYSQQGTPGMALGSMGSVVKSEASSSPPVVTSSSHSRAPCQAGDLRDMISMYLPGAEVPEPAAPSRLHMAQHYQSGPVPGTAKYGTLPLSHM

In the case of SOX2: S248A, the expression_or_secretion [1] was “no change”, the localisation_or_trafficking [2] was “no change” and the expression_or_secretion [3] was “no change”. For the same substance, the “other: phosphorylation at S253, other: % of total TAD peptide” value [4] was “increases, 18.7 vs 10.9” and the localisation_or_trafficking [5] was “no change”.
